Laboratory results from the DeepSol protein solubility set.

test: soluble on expression in E. coli; label from the status in PepcDB or PDB records

Sequence | soluble on expression in E. coli
MGSDKIHHHHHHMLIEEIMKRNVVTIHEQTTIKEAYQTMILEKFRHLPVITKSKDVIGIVTDQDIRDASPSIFHQDEHQEDLQKPVSSIMTKDVITVHPLNSVAETARLLYENRISCLPVTEGEQLVGIVTDTDVLHTLVELMGAHQPSSQIYVRVENKAGQLADVAAIMKQRQMNIASVLVYPHREDERYKILAFRIQSMDPRGTISDLQSKGYHVLWPNIPGIAT | not soluble
MSDETDWYGPEAATFGDRLAAAREASGMTQAQLARRLGVKKATINGWEDDLSEPRANRLSMLAGLLNVSIVWLITGEGQGGEALNETDETARDMAALLTELRSLRADLQASGQRAARLEKQLRQIMEHSA | not soluble
PSEIFYQAKVREQKERHARYHDTTYNLEPDIKSTPGGLRDIHTLSWVARRHFGATSLYEMSRFGFLTDAEYRELVECQDFLWRVRFALHIELKRYDNRLTFAHQVQVARHLGYFGEGNRGIEMMMKEFFRTLRRVAELNKMLLKIFDKAILNNGEEAEAVIIDDDFQRRGNMIEARKPALFQARPETILDMFLHMASDSTIESVAPATMRQLRTARRRLN | not soluble
MDWQNRFSVLNLSSHDPLPELMLTHLTGWGAITLVGADKKAYLQGQVTCNVVSLQEQQVTFGAHCDAKGKVWSVFRLFHHHDGYAMFQPQSAMEVELRELKKYAIFSKVTIAESSDIALGVMGSQADAWIDTVSETTGDVRRIAGGTAVRMSPQRWLLLVNAEQAEQYVNAWQGLHVEQSLWTRMDIEEAVPVVTQTAQNEHIPQALNVQAVDGISFTKGCYTGQETVARAKYRGINKRAMYIVKGNLSAPLSQDEPVVLERAVGENWRSAGALLTHYRFTDSIAIGLIVLPNDLEHDVKLRLAAQPDTRWHIQPLPYSLSDELEHHHHHH | soluble
MEAPLYPDLPPDLCAPRGGQPAFWVGPRHLAGDDGRLYDVVADALAGLGWTSLTIVRGRHEPDEEPEDRQVLRSTVLHISPDALRWAQWCAADEPFHLGGLPIAWQISVRAEVSSPLAQWSAYFTRDVPGEAVVDFLVALDASNQPAVSLAGAELVLDAVAAHGWFRDIDQPEAVATDPAFTSHISLGEVPPLIQDGDLRVLSAEDDETGPDGWQAWAEPVLGAPLLWVASFAASVPHDLVAAFAASLSSTAPVLRRVLPEATHERLLRAPAILEHHHHHH | not soluble
MSTMSSPIYIQIHNQIKQAIEAGRWAVGDRIPSERELATQFDVSRMTLRQAIQTLVDEGILERRVGAGTFVANQKVQEKMSGVTSFTDLMLAQGKVPSSKTISYHVTSPSLSESEKLALGANEQVLRMERIRYGDDVPICFEVATVPERLVKQFTKDEITSSLYRTLEEKASLVPGKAQQTVSAMSASERIAEYLSVRRGDALLRLRQISYLQTGEPFEYVRTQYVGNRFEFYLEK | not soluble
SQPKLALKQLAKQGDECLKKGAWVLIFPEGTRIPVGQMGKFSRGGTALAVNAGLPVLPIAHNAGQYWPKAGWAKYPGTIQVVIGPAMHAEGEGPRAIAELNQRAEAWVSETMAEISPIQQRVSHPEPSVVS | not soluble
MGSDKIHHHHHHMKSFVIEDEFWSLFPNAKIGVVICHSIDNSIKDENQYKDMISNSEEEALSYLKNEEFSSNEVIKVWREAFQKFKTKKGARSSIEALLKRVHKGNHIGTINPLVDIYNSISLRYAMPCGGEDIDAFAGDIRLTKAVGNESFVTLGTDKNEPPYEGEIVYKDNEGAICRCFNWRESVRTMLTENTKNAFLCIELIDETRVKEFEDALDTLAKTVQDNLGGNCKISTLDINNKSVVID | not soluble
MGSSHHHHHHMKKARMTVDKDYKIAEIDKRIYGSFVEHLGRAVYDGLYQPGNSKSDEDGFRKDVIELVKELNVPIIRYPGGNFVSNYFWEDGVGPVEDRPRRLDLAWKSIEPNQVGINEFAKWCKKVNAEIMMAVNLGTRGISDACNLLEYCNHPGGSKYSDMRIKHGVKEPHNIKVWCLGNAMDGPWQVGHKTMDEYGRIAEETARAMKMIDPSIELVACGSSSKDMPTFPQWEATVLDYAYDYVDYISLHQYYGNKENDTADFLAKSDDLDDFIRSVIATCDYIKAKKRSKKDIYLSFDEWNVWYHSNNEDANIMQNEPWRIAPPLLEDIYTFEDALLVGLMLITLMKHADRIKIACLAQLINVIAPIVTERNGGAAWRQTIFYPFMHASKYGRGIVLQPVINSPLHDTSKHEDVTDIESVAIYNEEKEEVTIFAVNRNIHEDIVLVSDVRGMKDYRLLEHIVLEHQDLKIRNSVNGEEVYPKNSDKSSFDDGILTSMLRRASWNVIRIGK | soluble
MGSDKIHHHHHHMSTVESALTRRIMGIETEYGLTFVDGDSKKLRPDEIARRMFRPIVEKYSSSNIFIPNGSRLYLDVGSHPEYATAECDNLTQLINFEKAGDVIADRMAVDAEESLAKEDIAGQVYLFKNNVDSVGNSYGCHENYLVGRSMPLKALGKRLMPFLITRQLICGAGRIHHPNPLDKGESFPLGYCISQRSDHVWEGVSSATTRSRPIINTRDEPHADSHSYRRLHVIVGDANMAEPSIALKVGSTLLVLEMIEADFGLPSLELANDIASIREISRDATGSTLLSLKDGTTMTALQIQQVVFEHASKWLEQRPEPEFSGTSNTEMARVLDLWGRMLKAIESGDFSEVDTEIDWVIKKKLIDRFIQRGNLGLDDPKLAQVDLTYHDIRPGRGLFSVLQSRGMIKRWTTDEAILAAVDTAPDTTRAHLRGRILKAADTLGVPVTVDWMRHKVNRPEPQSVELGDPFSAVNSEVDQLIEYMTVHAESYRS | not soluble
MSLSDLFTTIKGQVTGKNVRIVLPEGTDERIVGAAARLQKENIVKPILLGNKAEIEAKAKEIGVSVEGIAIHEPATDPLFDELVAAFVERRKGKATEEAARKMLVDPNYFGTMLVYTGKAEGLVSGAAHSTGDTVRPALQIIKTKPGVSKVAGAMIMVRGEERYLFSDVAINIAPVAADLAENAIVSAETAEIFGIDPRVAMLSFSTKGSAKSDETEKVVEATALAKEKAPELTLDGEFQFDAAFVPTVAEKKAPGSVIKGDANVFIFPSLEAGNIGYKIAQRLGNFEAVGPILQGLNAPVNDLSRGCNTDDVYNLTLITAAQAVNKEGHHHHHH | soluble
MGSHHHHHHDITSLYKKAGSAAAVLEENLYFGGSFTMANVNKTPGKTRRAEVAGGGFAGLTAAIALKQNGWDVRLHEKSSELRAFGAGIYLWHNGLRVLEGLGALDDVLQGSHTPPTYETWMHNKSVSKETFNGLPWRIMTRSHLHDALVNRARALGVDISVNSEAVAADPVGRLTLQTGEVLEADLIVGADGVGSKVRDSIGFKQDRWVSKDGLIRLIVPRMKKELGHGEWDNTIDMWNFWPRVQRILYSPCNENELYLGLMAPAADPRGSSVPIDLEVWVEMFPFLEPCLIEAAKLKTARYDKYETTKLDSWTRGKVALVGDAAHAMCPALAQGAGCAMVNAFSLSQDLEEGSSVEDALVAWETRIRPITDRCQALSGDYAANRSLSKGNMFTPAALEAARYDPLRRVYSWPQ | soluble
MADENHVRLSEVQLIQSEFGHSLEECYKLAVQYYKKEHVGKQEPVGYEDRIKLLSLSKQVQHGEISDEFDNAGWLDITGNDVNKAWRELGSLSRDEAMASFVFLVDRVCPPFKGFIADKKAIKDAELKEFAPQVTEQSAQPPSLQQVDQRLFEDQRKQIQEALNAQTFHQFSAYAQEQFPGQPEQQTTLIRQLQEQHYQQYMSQVYAQQSTTPNGAEMNPEESHQHQIRRDDDSDVSDDEAGEDLPSNPAISPASLWNRQDINEFKANIKKDGHEGIIKVGHGETVTVRVPTHENGSCLFWEFATDHYDIGFGVYFEWTVADSNQVSVHVSESDDEEDYDEALEAEQAEAGGGGGGAAGQGGPGDVEAGAMQTRRVDPNKPRQDEIIPVYRRDCHEEVYAGSHRYPGRGIYLLKFDNSYSLWRSKTLYYRVYYSK | soluble
NANDNVVIVGTGLAGVEVAFGLRASGWEGNIRLVGDATVIPHHLPPLSKAYLAGKATAESLYLRTPDAYAAQNIQLLGGTQVTAINRDRQQVILSDGRALDYDRLVLATGGRPRPLPVASGAVGKANNFRYLRTLEDAECIRRQLIADNRLVVIGGGYIGLEVAATAIKANMHVTLLDTAARVLERVTAPPVSAFYEHLHREAGVDIRTGTQVCGFEMSTDQQKVTAVLCEDGTRLPADLVIAGIGLIPNCELASAAGLQVDNGIVINEHMQTSDPLIMAVGDCARFHSQLYDRWVRIESVPNALEQARKIAAILCGKVPRDEAAPWFWSDQYEIGLKMVGLSEGYDRIIVRGSLAQPDFSVFYLQGDRVLAVDTVNRPVEFNQSKQIITDRLPVEPNLLGDESVPLKEIIAAAKAELSSAKAELSSAPRHHHHHH | soluble
MLVRDVMKSPVLTVGPEATLEEAYKLLLERGIRHLPVVEEGRLVGIVTDRDIRLATSHLNPKGPCPGCTRVGEVMTREVVTAHPLDPVEEAARVMRERKIGCLPVLEDEALVGIVTGIDLLDALLRLTGVTEPSGRLEVRLPDRPGELARLTGFLAGRGVNIHSLLSYPEGREFVRAVVRVNTLETHLLAEALRREGFDVLWPPKKPW | soluble
MSLAPVNIFKAGADEERAETARLTSFIGAIAIGDLVKSTLGPKGMDKILLSSGRDASLMVTNDGATILKNIGVDNPAAKVLVDMSRVQDDEVGDGTTSVTVLAAELLREAESLIAKKIHPQTIIAGWREATKAAREALLSSAVDHGSDEVKFRQDLMNIAGTTLSSKLLTHHKDHFTKLAVEAVLRLKGSGNLEAIHIIKKLGGSLADSYLDEGFLLDKKIGVNQPKRIENAKILIANTGMDTDKIKIFGSRVRVDSTAKVAEIEHAEKEKMKEKVERILKHGINCFINRQLIYNYPEQLFGAAGVMAIEHADFAGVERLALVTGGEIASTFDHPELVKLGSCKLIEEVMIGEDKLIHFSGVALGEACTIVLRGATQQILDEAERSLHDALCVLAQTVKDSRTVYGGGCSEMLMAHAVTQLANRTPGKEAVAMESYAKALRMLPTIIADNAGYDSADLVAQLRAAHSEGNTTAGLDMREGTIGDMAILGITESFQVKRQVLLSAAEAAEVILRVDNIIKAAPRKRVPDHHEGHHHHHH | soluble
MGKKELKRGLVVDREAQMIGVYLFEDGKTYRGIPRGKVLKKTKIYAGDYVWGEVVDPNTFAIEEVEERKNLLIRPKVANVDRVIIVETLKMPEFNNYLLDNMLVVYEYFKVEPVIVFNKIDLLNEEEKKELERWISIYRDAGYDVLKVSAKTGEGIDELVDYLEGFICILAGPSGVGKSSILSRLTGEELRTQEVSEKTERGRHTTTGVRLIPFGKGSFVGDTPGFSKVEATMFVKPREVRNYFREFLRYQCKYPDCTHTNEPGCAVKEAVKNGEISCERYKSYLKIIKVYLEEIKELCRED | soluble
MVLSVADAKKLTVPRLKEELASRGLDNTGNKPELLARLTESIEQAADELLGDAGITSDTHLLSDDILNDDILDAPSVGDESEADKLLGSVDGAEEHKTDKSEGEEKHEVHLIDKKIDEVTAETDKRARAIRFGLPVTAEDLGSDGAKAARAKRFDLPEDSKRLTSNDAKASRAERFGITPKTPAADDKLAARAARFGIPVGGAASASASKNAPNSEGKAAKLAARAKRFGGEIDDEEMEAKKKARMERFGTSN | not soluble
